# Measured values published in IntAct's records for PubMed 10318831.
# B1: Semaphorin-4C (Mus musculus), Q64151 (parent)
# chain: MAPHWAVWLLAAGLWGLGIGAEMWWNLVPRKTVSSGELVTVVRRFSQTGIQDFLTLTLTEHSGLLYVGAREALFAFSVEALELQGAISWEAPAEKKIECTQKGKSNQTECFNFIRFLQPYNSSHLYVCGTYAFQPKCTYINMLTFTLDRAEFEDGKGKCPYDPAKGHTGLLVDGELYSATLNNFLGTEPVILRYMGTHHSIKTEYLAFWLNEPHFVGSAFVPESVGSFTGDDDKIYFFFSERAVEYDCYSEQVVARVARVCKGDMGGARTLQKKWTTFLKARLVCSAPDWKVYFNQLKAVHTLRGASWHNTTFFGVFQARWGDMDLSAVCEYQLEQIQQVFEGPYKEYSEQAQKWARYTDPVPSPRPGSCINNWHRDNGYTSSLELPDNTLNFIKKHPLMEDQVKPRLGRPLLVKKNTNFTHVVADRVPGLDGATYTVLFIGTGDGWLLKAVSLGPWIHMVEELQVFDQEPVESLVLSQSKKVLFAGSRSQLVQLSLADCTKYRFCVDCVLARDPYCAWNVNTSRCVATTSGRSGSFLVQHVANLDTSKMCNQYGIKKVRSIPKNITVVSGTDLVLPCHLSSNLAHAHWTFGSQDLPAEQPGSFLYDTGLQALVVMAAQSRHSGPYRCYSEEQGTRLAAESYLVAVVAGSSVTLEARAPLENLGLVWLAVVALGAVCLVLLLLVLSLRRRLREELEKGAKASERTLVYPLELPKEPASPPFRPGPETDEKLWDPVGYYYSDGSLKIVPGHARCQPGGGPPSPPPGIPGQPLPSPTRLHLGGGRNSNANGYVRLQLGGEDRGGSGHPLPELADELRRKLQQRQPLPDSNPEESSV
# partner: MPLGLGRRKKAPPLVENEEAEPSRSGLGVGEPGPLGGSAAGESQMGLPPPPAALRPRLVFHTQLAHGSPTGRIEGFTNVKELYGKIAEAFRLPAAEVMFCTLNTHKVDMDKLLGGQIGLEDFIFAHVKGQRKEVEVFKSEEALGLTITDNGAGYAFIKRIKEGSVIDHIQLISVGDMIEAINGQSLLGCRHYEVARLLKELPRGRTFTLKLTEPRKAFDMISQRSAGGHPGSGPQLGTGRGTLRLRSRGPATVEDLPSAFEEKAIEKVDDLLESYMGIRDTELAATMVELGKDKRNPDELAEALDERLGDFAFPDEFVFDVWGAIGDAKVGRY
# Variants of: B1
# Settings: with gipc1_mouse Gipc1, Q9Z0G0
row,Variant,effect of a mutation on the interaction
1,S832A,disrupting interaction
2,S832D,disrupting interaction
